Results from PMC6215540, “Kinetic characterization of acetone monooxygenase from Gordonia sp. strain TY-5” (AMB Express, 2018).
Where a chain is given by its changes, count along the chain named. Names may count otherwise.

Legend:
CC(=O)Cc1ccccc1 = test: purified protein; assay type: biochemical, Gordonia sp. TY-5; conditions: 100 µM NADPH, air-saturated 50 mM HEPES pH 7.5, 25 °C
GSTACMO [1] = target: T1, GSTACMO (Gordonia sp. TY-5, UniProt A1IHE6); test: stopped-flow flavin reduction at […] nm, hyperbolic fit of kobs; assay type: biochemical; conditions: 50 mM HEPES pH 7.5, 20% glycerol, 25 °C, anaerobic; oxidized enzyme; text b56 prints 121; table labels it ACMO, done on GSTACMO; read-out: Measured values
T1 construct: gene acmA; full-length with N-terminal GST tag kept (pGEX4T1), E. coli DH5alpha

ACMO [2] = target: T2, ACMO (Gordonia sp. TY-5, UniProt A1IHE6, H325K); test: NADPH oxidation at […] nm, competitive inhibition fit; assay type: biochemical; conditions: read-out: Measured values
T2 construct: gene acmA; full-length, codon-optimised gene in pGEX4T1, E. coli DH5alpha; N-terminal GST removed with thrombin; calculated mass 59,780 Da
T2 sequence (A1IHE6 whole entry H325K): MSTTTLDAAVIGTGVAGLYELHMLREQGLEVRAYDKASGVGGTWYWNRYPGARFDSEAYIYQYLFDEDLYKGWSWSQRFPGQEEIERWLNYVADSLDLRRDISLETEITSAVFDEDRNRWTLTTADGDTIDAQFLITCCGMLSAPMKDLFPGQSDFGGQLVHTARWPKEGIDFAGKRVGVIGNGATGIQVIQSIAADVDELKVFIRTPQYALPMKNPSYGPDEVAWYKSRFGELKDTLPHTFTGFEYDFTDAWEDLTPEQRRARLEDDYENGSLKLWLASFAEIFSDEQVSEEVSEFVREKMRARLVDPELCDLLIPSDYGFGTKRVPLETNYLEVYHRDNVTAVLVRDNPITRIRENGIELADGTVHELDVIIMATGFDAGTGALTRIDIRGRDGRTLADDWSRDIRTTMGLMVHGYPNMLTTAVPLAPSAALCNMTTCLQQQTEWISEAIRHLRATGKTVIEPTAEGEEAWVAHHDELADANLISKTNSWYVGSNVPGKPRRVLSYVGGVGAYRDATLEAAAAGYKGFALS

GSTACMO [3] = target: T3, GSTACMO (Gordonia sp. TY-5, UniProt A1IHE6, H325K); test: flavin absorbance titration at […] nm, quadratic fit; assay type: binding
T3 construct: gene acmA; full-length with N-terminal GST tag kept (pGEX4T1), E. coli DH5alpha
T3 sequence (A1IHE6 whole entry H325K): as above

ACMO [4] = target: T4, ACMO (Gordonia sp. TY-5, UniProt A1IHE6); test: NADPH oxidation at […] nm, competitive inhibition fit; assay type: biochemical; conditions: read-out: Measured values
T4 construct: gene acmA; full-length, codon-optimised gene in pGEX4T1, E. coli DH5alpha; N-terminal GST removed with thrombin; calculated mass 59,780 Da

GSTACMO [5] = target: T1, GSTACMO; test: flavin absorbance titration at […] nm, quadratic fit; assay type: binding
purified protein [6] = substrate: CCCC(C)=O; test: purified protein; assay type: biochemical, Gordonia sp. TY-5; conditions: 100 µM NADPH, air-saturated 50 mM HEPES pH 7.5, 25 °C
purified protein [7] = substrate: CCC(C)=O; test: purified protein; assay type: biochemical, Gordonia sp. TY-5; conditions: 100 µM NADPH
purified protein [8] = substrate: NC(=O)C1=CN([C@@H]2O[C@H](COP(=O)(O)OP(=O)(O)OC[C@H]3O[C@@H](n4cnc5c(N)ncnc54)[C@H](OP(=O)(O)O)[C@@H]3O)[C@@H](O)[C@H]2O)C=CC1; test: purified protein; assay type: biochemical, Gordonia sp. TY-5; conditions: 200 μM butanone
purified protein [9] = substrate: CCCCCC(C)=O; test: purified protein; assay type: biochemical, Gordonia sp. TY-5; conditions: 100 µM NADPH, air-saturated 50 mM HEPES pH 7.5, 25 °C
purified protein [10] = substrate: O=C1CCCCC1; test: purified protein; assay type: biochemical, Gordonia sp. TY-5; conditions: 100 µM NADPH, air-saturated 50 mM HEPES pH 7.5, 25 °C
purified protein [11] = substrate: O=C1CCCC1; test: purified protein; assay type: biochemical, Gordonia sp. TY-5; conditions: 100 µM NADPH, air-saturated 50 mM HEPES pH 7.5, 25 °C
purified protein [12] = substrate: CC(C)=O; test: purified protein; assay type: biochemical, Gordonia sp. TY-5; conditions: 100 µM NADPH, air-saturated 50 mM HEPES pH 7.5, 25 °C
purified protein [13] = substrate: O=C1CCC1; test: purified protein; assay type: biochemical, Gordonia sp. TY-5; conditions: 100 µM NADPH, air-saturated 50 mM HEPES pH 7.5, 25 °C
purified protein [14] = substrate: CC(C)C(=O)C(C)C; test: purified protein; assay type: biochemical, Gordonia sp. TY-5; conditions: 100 µM NADPH, air-saturated 50 mM HEPES pH 7.5, 25 °C
purified protein [15] = substrate: O=C1CC2C=CCC12; test: purified protein; assay type: biochemical, Gordonia sp. TY-5; conditions: 100 µM NADPH, air-saturated 50 mM HEPES pH 7.5, 25 °C
purified protein [16] = substrate: CC(=O)C(C)C; test: purified protein; assay type: biochemical, Gordonia sp. TY-5; conditions: 100 µM NADPH, air-saturated 50 mM HEPES pH 7.5, 25 °C
[17] = air-saturated 50 mM HEPES pH 7.5, 25 °C
[18] = 50 mM HEPES pH 7.5, 25 °C, GST tag state not told, table row identical to the NADPH row, possible duplication
[19] = 50 mM HEPES pH 7.5, 25 °C, GST tag state not told, table row identical to the butanone row, possible duplication

Molecule ACMO (Gordonia sp. TY-5) has a Km (CC(=O)Cc1ccccc1) of 8.9 ± 1.5 µM, a kcat (CC(=O)Cc1ccccc1) of 1 ± 0.1 s⁻¹ and a kcat/Km (CC(=O)Cc1ccccc1) of 112000 ± 20000 M⁻¹ s⁻¹.

`NC(=O)C1=CN([C@@H]2O[C@H](COP(=O)(O)OP(=O)(O)OC[C@H]3O[C@@H](n4cnc5c(N)ncnc54)[C@H](OP(=O)(O)O)[C@@H]3O)[C@@H](O)[C@H]2O)C=CC1` [NADPH] showed a Kd (GSTACMO [1]) of 120 ± 14 µM.

`NC(=O)c1ccc[n+]([C@@H]2O[C@H](COP(=O)(O)OP(=O)(O)OC[C@H]3O[C@@H](n4cnc5c(N)ncnc54)[C@H](OP(=O)(O)O)[C@@H]3O)[C@@H](O)[C@H]2O)c1` [NADP^+] gave a Ki (ACMO [2]) of 27 ± 6 µM, a Kd (GSTACMO [3]) of 0.5 ± 0.04 µM and a Ki (ACMO [4]) of 166 ± 13 µM. It also gave a Kd (GSTACMO [5]) of 21.1 ± 4.1 µM.

B1: ACMO (Gordonia sp. TY-5) (protein)
chain: MSTTTLDAAVIGTGVAGLYELHMLREQGLEVRAYDKASGVGGTWYWNRYPGARFDSEAYIYQYLFDEDLYKGWSWSQRFPGQEEIERWLNYVADSLDLRRDISLETEITSAVFDEDRNRWTLTTADGDTIDAQFLITCCGMLSAPMKDLFPGQSDFGGQLVHTARWPKEGIDFAGKRVGVIGNGATGIQVIQSIAADVDELKVFIRTPQYALPMKNPSYGPDEVAWYKSRFGELKDTLPHTFTGFEYDFTDAWEDLTPEQRRARLEDDYENGSLKLWLASFAEIFSDEQVSEEVSEFVREKMRARLVDPELCDLLIPSDYGFGTHRVPLETNYLEVYHRDNVTAVLVRDNPITRIRENGIELADGTVHELDVIIMATGFDAGTGALTRIDIRGRDGRTLADDWSRDIRTTMGLMVHGYPNMLTTAVPLAPSAALCNMTTCLQQQTEWISEAIRHLRATGKTVIEPTAEGEEAWVAHHDELADANLISKTNSWYVGSNVPGKPRRVLSYVGGVGAYRDATLEAAAAGYKGFALS
notes: full-length, codon-optimised gene in pGEX4T1, E. coli DH5alpha; N-terminal GST removed with thrombin; calculated mass 59,780 Da
B1 gave a Km (purified protein [6]) of 0.37 ± 0.06 µM, a kcat (purified protein [6]) of 1.9 ± 0.1 s⁻¹ and a kcat/Km (purified protein [6]) of 4.8e+06 ± 760000 M⁻¹ s⁻¹. For the same molecule, the Km (purified protein [7]; [17]) was 0.34 ± 0.03 µM, the kcat (purified protein [7]; [17]) was 2.1 ± 0.1 s⁻¹ and the kcat/Km (purified protein [7]; [17]) was 6e+06 ± 550000 M⁻¹ s⁻¹. The Km (purified protein [8]; [17]) was 6.7 ± 0.8 µM, the kcat (purified protein [8]; [17]) was 2 ± 0.1 s⁻¹ and the kcat/Km (purified protein [8]; [17]) was 300000 ± 36000 M⁻¹ s⁻¹. It also gave a Km (purified protein [9]) of 1.5 ± 0.1 µM, a kcat (purified protein [9]) of 3.9 ± 0.1 s⁻¹ and a kcat/Km (purified protein [9]) of 2.6e+06 ± 130000 M⁻¹ s⁻¹. It also gave a Km (purified protein [10]) of 2400 ± 400 µM, a kcat (purified protein [10]) of 3.6 ± 0.2 s⁻¹ and a kcat/Km (purified protein [10]) of 1500 ± 300 M⁻¹ s⁻¹. It also gave a Km (purified protein [11]) of 120 ± 11 µM, a kcat (purified protein [11]) of 4.3 ± 0.1 s⁻¹ and a kcat/Km (purified protein [11]) of 35000 ± 3200 M⁻¹ s⁻¹. The Km (purified protein [12]) was 170 ± 11 µM, the kcat (purified protein [12]) was 1.4 ± 0.2 s⁻¹ and the kcat/Km (purified protein [12]) was 8500 ± 590 M⁻¹ s⁻¹. The Km (purified protein [13]) was 1.5 ± 0.2 µM, the kcat (purified protein [13]) was 2 ± 0.1 s⁻¹ and the kcat/Km (purified protein [13]) was 1.4e+06 ± 190000 M⁻¹ s⁻¹. For the same molecule, the Km (purified protein [14]) was 1500 ± 220 µM, the kcat (purified protein [14]) was 1.5 ± 0.1 s⁻¹ and the kcat/Km (purified protein [14]) was 1000 ± 150 M⁻¹ s⁻¹. The Km (purified protein [15]) was 6.7 ± 1.3 µM, the kcat (purified protein [15]) was 1.5 ± 0.1 s⁻¹ and the kcat/Km (purified protein [15]) was 220000 ± 45000 M⁻¹ s⁻¹. It also gave a Km (purified protein [16]) of 4.4 ± 0.5 µM, a kcat (purified protein [16]) of 2.2 ± 0.1 s⁻¹ and a kcat/Km (purified protein [16]) of 510000 ± 55000 M⁻¹ s⁻¹.

B2: GSTACMO (Gordonia sp. TY-5) (protein)
chain: B1 chain
notes: full-length with N-terminal GST tag kept (pGEX4T1), E. coli DH5alpha
B2 showed a Km (purified protein [10]) of 2300 ± 380 µM, a kcat (purified protein [10]) of 2.8 ± 0.1 s⁻¹ and a kcat/Km (purified protein [10]) of 1200 ± 200 M⁻¹ s⁻¹.

B3: ACMO (Gordonia sp. TY-5; H325K) (protein)
chain: B1 chain with H325K
notes: as for B1
In the case of B3, the Km (purified protein [7]; [18]) is reported as 0.48 ± 0.05 µM, the kcat (purified protein [7]; [18]) is reported as 1.6 ± 0.1 s⁻¹ and the kcat/Km (purified protein [7]; [18]) is reported as 3.25e+06 ± 320000 M⁻¹ s⁻¹. For the same molecule, the Km (purified protein [8]; [19]) was 0.48 ± 0.05 µM, the kcat (purified protein [8]; [19]) was 1.6 ± 0.1 s⁻¹ and the kcat/Km (purified protein [8]; [19]) was 3.25e+06 ± 320000 M⁻¹ s⁻¹.
